According to article PMC10250227 (Nucleic Acids Research, 2023):
Read-outs that look alike come from different tables or passages of the source.

T1: NEQ395 (Nanoarchaeum equitans, UniProt Q74N22)
T1 sequence (Q74N22 1-393): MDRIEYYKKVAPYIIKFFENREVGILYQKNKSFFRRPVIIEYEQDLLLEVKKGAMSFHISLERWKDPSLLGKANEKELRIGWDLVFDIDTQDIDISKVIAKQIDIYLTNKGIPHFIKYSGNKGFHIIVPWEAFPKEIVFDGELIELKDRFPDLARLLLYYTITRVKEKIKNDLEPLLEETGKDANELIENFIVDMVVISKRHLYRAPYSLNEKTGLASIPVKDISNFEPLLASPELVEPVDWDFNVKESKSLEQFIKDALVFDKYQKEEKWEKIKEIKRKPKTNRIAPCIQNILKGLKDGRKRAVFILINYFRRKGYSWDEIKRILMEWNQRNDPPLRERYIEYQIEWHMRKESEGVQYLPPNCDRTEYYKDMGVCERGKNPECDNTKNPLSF

T2: NEQ395 DNA primase (monomeric PriS-PriL) (Nanoarchaeum equitans, UniProt Q74N22 1-393)
T2 sequence: T1 sequence (Q74N22 1-393)

B1: t18_ds (dsDNA)
DNA 1: TGTAAAACGACGGCCAGT
DNA 2: ACTGGCCGTCGTTTTACA

Tests used:
NEQ395 = molecular target: T1, NEQ395; test: RP-HPLC primase assay with omission of single rNTPs; assay type: biochemical; conditions: pH 6.5, 70°C
[1] = molecular target: T2, NEQ395 DNA primase (monomeric PriS-PriL); test: fluorescence anisotropy
[2] = molecular target: T2, NEQ395 DNA primase (monomeric PriS-PriL); test: fluorescence anisotropy; remark: listed apart in the source
[3] = molecular target: T2, NEQ395 DNA primase (monomeric PriS-PriL); test: fluorescence anisotropy; remark: listed apart in the source

Row | Molecule | Kd [1] | Kd [3] | other results
1 | Nc1nc2c(ncn2[C@@H]2O[C@H](COP(=O)(O)OP(=O)(O)OP(=O)(O)O)[C@@H](O)[C@H]2O)c(=O)[nH]1 [GTP] |  |  | RP-HPLC primase assay with omission of single rNTPs (NEQ395; elongating nucleotide, ssDNA template Fid2, Mn2+): In presence of GTP, extension to the full-length primers occurs.
2 | Nc1ncnc2c1ncn2[C@@H]1O[C@H](COP(=O)(O)OP(=O)(O)OP(=O)(O)O)[C@@H](O)[C@H]1O [ATP] |  |  | RP-HPLC primase assay with omission of single rNTPs (NEQ395; initiating nucleotide, ssDNA template Fid1-4, Mn2+): using an rNTP mix without ATP (the first cognate base needed for synthesis) did not initiate
3 | CTATACTCA (ssDNA) [t9] | 1060 nM |  | Kd [2]: 580 nM
4 | CTGTGCTCA (ssDNA) [t9-ATA (lacks ATA)] | 2870 nM |  | 
5 | TGTAAAACGACGGCCAGT (ssDNA) [t18] |  | 510 nM | 
6 | B1 |  | 650 nM | 
